B1: Coiled-coil domain-containing protein 120 (Homo sapiens), Q96HB5-4 (parent)
chain: MRREPRYQGQVGPDIHTDSERTLSSHQPRPLDSTKMEVKGQLISSPTFNAPAALFGEAAPQVKSERLRGLLDRQRTLQEALSLKLQELRKVCLQEAELTGQLPPECPLEPGERPQLVRRRPPTARAYPPPHPNQAHHSLCPAEELALEALEREVSVQQQIAAAARRLALAPDLSTEQRRRRRQVQADALRRLHELEEQLRDVRARLGLPVLPLPQPLPLSTGSVITTQGVCLGMRLAQLSQEDVVLHSESSSLSESGASHDNEEPHGCFSLAERPSPPKAWDQLRAVSGGSPERRTPWKPPPSDLYGDLKSRRNSVASPTSPTRSLPRSASSFEGRSVPATPVLTRGAGPQLCKPEGLHSRQWSGSQDSQMGFPRADPASDRASLFVARTRRSNSSEALLVDRAAGGGAGSPPAPLAPSASGPPVCKSSEVLYERPQPTPAFSSRTAGPPDPPRAARPSSAAPASRGAPRLPPVCGDFLLDYSLDRGLPRSGGGTGWGELPPAAEVPGPLSRRDGLLTMLPGPPPVYAADSNSPLLRTKDPHTRATRTKPCGLPPEAAEGPEVHPNPLLWMPPPTRIPSAGERSGHKNLALEGLRDWYIRNSGLAAGPQRRPVLPSVGPPHPPFLHARCYEVGQALYGAPSQAPLPHSRSFTAPPVSGRYYADFLYPPELSARLSDLTLEGEQSSSSDTQTPGTLV
partner: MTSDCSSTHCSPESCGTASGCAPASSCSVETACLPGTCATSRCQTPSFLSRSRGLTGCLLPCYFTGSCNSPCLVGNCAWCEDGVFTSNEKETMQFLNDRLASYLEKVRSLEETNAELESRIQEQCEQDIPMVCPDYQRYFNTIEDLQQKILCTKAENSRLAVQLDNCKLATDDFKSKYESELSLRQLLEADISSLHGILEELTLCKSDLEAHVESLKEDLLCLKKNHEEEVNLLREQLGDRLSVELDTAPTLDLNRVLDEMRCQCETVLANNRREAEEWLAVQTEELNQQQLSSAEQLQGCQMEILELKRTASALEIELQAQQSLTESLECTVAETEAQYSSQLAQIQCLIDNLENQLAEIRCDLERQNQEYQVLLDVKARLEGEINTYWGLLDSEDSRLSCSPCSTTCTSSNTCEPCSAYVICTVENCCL
B2: E3 ubiquitin-protein ligase RNF31 (Homo sapiens), Q96EP0 (parent)
chain: MPGEEEERAFLVAREELASALRRDSGQAFSLEQLRPLLASSLPLAARYLQLDAARLVRCNAHGEPRNYLNTLSTALNILEKYGRNLLSPQRPRYWRGVKFNNPVFRSTVDAVQGGRDVLRLYGYTEEQPDGLSFPEGQEEPDEHQVATVTLEVLLLRTELSLLLQNTHPRQQALEQLLEDKVEDDMLQLSEFDPLLREIAPGPLTTPSVPGSTPGPCFLCGSAPGTLHCPSCKQALCPACDHLFHGHPSRAHHLRQTLPGVLQGTHLSPSLPASAQPRPQSTSLLALGDSSLSSPNPASAHLPWHCAACAMLNEPWAVLCVACDRPRGCKGLGLGTEGPQGTGGLEPDLARGRWACQSCTFENEAAAVLCSICERPRLAQPPSLVVDSRDAGICLQPLQQGDALLASAQSQVWYCIHCTFCNSSPGWVCVMCNRTSSPIPAQHAPRPYASSLEKGPPKPGPPRRLSAPLPSSCGDPEKQRQDKMREEGLQLVSMIREGEAAGACPEEIFSALQYSGTEVPLQWLRSELPYVLEMVAELAGQQDPGLGAFSCQEARRAWLDRHGNLDEAVEECVRTRRRKVQELQSLGFGPEEGSLQALFQHGGDVSRALTELQRQRLEPFRQRLWDSGPEPTPSWDGPDKQSLVRRLLAVYALPSWGRAELALSLLQETPRNYELGDVVEAVRHSQDRAFLRRLLAQECAVCGWALPHNRMQALTSCECTICPDCFRQHFTIALKEKHITDMVCPACGRPDLTDDTQLLSYFSTLDIQLRESLEPDAYALFHKKLTEGVLMRDPKFLWCAQCSFGFIYEREQLEATCPQCHQTFCVRCKRQWEEQHRGRSCEDFQNWKRMNDPEYQAQGLAMYLQENGIDCPKCKFSYALARGGCMHFHCTQCRHQFCSGCYNAFYAKNKCPEPNCRVKKSLHGHHPRDCLFYLRDWTALRLQKLLQDNNVMFNTEPPAGARAVPGGGCRVIEQKEVPNGLRDEACGKETPAGYAGLCQAHYKEYLVSLINAHSLDPATLYEVEELETATERYLHVRPQPLAGEDPPAYQARLLQKLTEEVPLGQSIPRRRK
B3: Leucine-zipper-like transcriptional regulator 1 (Homo sapiens), Q8N653 (parent)
chain: MAGPGSTGGQIGAAALAGGARSKVAPSVDFDHSCSDSVEYLTLNFGPFETVHRWRRLPPCDEFVGARRSKHTVVAYKDAIYVFGGDNGKTMLNDLLRFDVKDCSWCRAFTTGTPPAPRYHHSAVVYGSSMFVFGGYTGDIYSNSNLKNKNDLFEYKFATGQWTEWKIEGRLPVARSAHGATVYSDKLWIFAGYDGNARLNDMWTIGLQDRELTCWEEVAQSGEIPPSCCNFPVAVCRDKMFVFSGQSGAKITNNLFQFEFKDKTWTRIPTEHLLRGSPPPPQRRYGHTMVAFDRHLYVFGGAADNTLPNELHCYDVDFQTWEVVQPSSDSEVGGAEVPERACASEEVPTLTYEERVGFKKSRDVFGLDFGTTSAKQPTQPASELPSGRLFHAAAVISDAMYIFGGTVDNNIRSGEMYRFQFSCYPKCTLHEDYGRLWESRQFCDVEFVLGEKEECVQGHVAIVTARSRWLRRKITQARERLAQKLEQEAAPVPREAPGVAAGGARPPLLHVAIREAEARPFEVLMQFLYTDKIKYPRKGHVEDVLLIMDVYKLALSFQLCRLEQLCRQYIEASVDLQNVLVVCESAARLQLSQLKEHCLNFVVKESHFNQVIMMKEFERLSSPLIVEIVRRKQQPPPRTPLDQPVDIGTSLIQDMKAYLEGAGAEFCDITLLLDGHPRPAHKAILAARSSYFEAMFRSFMPEDGQVNISIGEMVPSRQAFESMLRYIYYGEVNMPPEDSLYLFAAPYYYGFYNNRLQAYCKQNLEMNVTVQNVLQILEAADKTQALDMKRHCLHIIVHQFTKVSKLPTLRSLSQQLLLDIIDSLASHISDKQCAELGADI
B4: Genetic suppressor element 1 (Homo sapiens), Q14687 (parent)
chain: MKGMSHEPKSPSLGMLSTATRTTATVNPLTPSPLNGALVPSGSPATSSALSAQAAPSSSFAAALRKLAKQAEEPRGSSLSSESSPVSSPATNHSSPASTPKRVPMGPIIVPPGGHSVPSTPPVVTIAPTKTVNGVWRSESRQDAGSRSSSGGRERLIVEPPLPQEKAGGPAIPSHLLSTPYPFGLSPSSVVQDSRFPPLNLQRPVHHVVPPSTVTEDYLRSFRPYHTTDDLRMSSLPPLGLDPATAAAYYHPSYLAPHPFPHPAFRMDDSYCLSALRSPFYPIPTPGSLPPLHPSAMHLHLSGVRYPPELSHSSLAALHSERMSGLSAERLQMDEELRREREREREREREREADREREKEREREREKEREQEKEREREKERERELERQREQRAREKELLAAKALEPSFLPVAELHGLRGHATEERGKPSEQLTPTRAEKLKDAGLQAPKPVQHPLHPVPTPHHTVPSLISNHGIFSLPSSSAATALLIQRTNEEEKWLARQRRLRQEKEDRQSQVSEFRQQVLEQHLDMGRPPVPAEAEHRPESTTRPGPNRHEPGGRDPPQHFGGPPPLISPKPQLHAAPTALWNPVSLMDNTLETRRAESHSLHSHPAAFEPSRQAAVPLVKVERVFCPEKAEEGPRKREPAPLDKYQPPPPPPREGGSLEHQPFLPGPGPFLAELEKSTQTILGQQRASLPQAATFGELSGPLKPGSPYRPPVPRAPDPAYIYDEFLQQRRRLVSKLDLEERRRREAQEKGYYYDLDDSYDESDEEEVRAHLRCVAEQPPLKLDTSSEKLEFLQLFGLTTQQQKEELVAQKRRKRRRMLRERSPSPPTIQSKRQTPSPRLALSTRYSPDEMNNSPNFEEKKKFLTIFNLTHISAEKRKDKERLVEMLRAMKQKALSAAVADSLTNSPRDSPAVSLSEPATQQASLDVEKPVGVAASLSDIPKAAEPGKLEQVRPQELSRVQELAPASGEKARLSEAPGGKKSLSMLHYIRGAAPKDIPVPLSHSTNGKSKPWEPFVAEEFAHQFHESVLQSTQKALQKHKGSVAVLSAEQNHKVDTSVHYNIPELQSSSRAPPPQHNGQQEPPTARKGPPTQELDRDSEEEEEEDDEDGEDEEEVPKRKWQGIEAVFEAYQEHIEEQNLERQVLQTQCRRLEARHYSLSLTAEQLSHSVAELRSQKQKMVSERERLQAELDHLRKCLALPAMHWPRGYLKGYPR
partner: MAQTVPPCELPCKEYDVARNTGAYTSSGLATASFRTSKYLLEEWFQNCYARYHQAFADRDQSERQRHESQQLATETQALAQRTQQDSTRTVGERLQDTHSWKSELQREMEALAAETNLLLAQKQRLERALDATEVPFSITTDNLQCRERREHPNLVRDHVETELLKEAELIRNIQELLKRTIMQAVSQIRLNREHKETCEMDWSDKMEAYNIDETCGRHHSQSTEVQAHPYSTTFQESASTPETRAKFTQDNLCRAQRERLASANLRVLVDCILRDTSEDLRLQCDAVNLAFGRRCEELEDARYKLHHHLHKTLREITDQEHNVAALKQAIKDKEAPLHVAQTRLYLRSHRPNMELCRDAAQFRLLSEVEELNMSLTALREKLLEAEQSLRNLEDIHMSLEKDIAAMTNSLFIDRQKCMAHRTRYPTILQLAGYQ
B5: Vacuolar protein-sorting-associated protein 25 (Homo sapiens), Q9BRG1 (parent)
chain: MAMSFEWPWQYRFPPFFTLQPNVDTRQKQLAAWCSLVLSFCRLHKQSSMTVMEAQESPLFNNVKLQRKLPVESIQIVLEELRKKGNLEWLDKSKSSFLIMWRRPEEWGKLIYQWVSRSGQNNSVFTLYELTNGEDTEDEEFHGLDEATLLRALQALQQEHKAEIITVSDGRGVKFF
partner: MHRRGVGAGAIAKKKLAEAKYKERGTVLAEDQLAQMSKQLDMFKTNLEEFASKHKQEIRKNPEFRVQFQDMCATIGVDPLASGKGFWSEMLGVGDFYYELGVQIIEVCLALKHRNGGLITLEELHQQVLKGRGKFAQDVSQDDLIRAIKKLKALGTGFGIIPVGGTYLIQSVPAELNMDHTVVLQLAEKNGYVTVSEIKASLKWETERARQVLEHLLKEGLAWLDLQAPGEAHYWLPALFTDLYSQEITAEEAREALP
B6: Protein VAC14 homolog (Homo sapiens), Q08AM6 (parent)
chain: MNPEKDFAPLTPNIVRALNDKLYEKRKVAALEIEKLVREFVAQNNTVQIKHVIQTLSQEFALSQHPHSRKGGLIGLAACSIALGKDSGLYLKELIEPVLTCFNDADSRLRYYACEALYNIVKVARGAVLPHFNVLFDGLSKLAADPDPNVKSGSELLDRLLKDIVTESNKFDLVSFIPLLRERIYSNNQYARQFIISWILVLESVPDINLLDYLPEILDGLFQILGDNGKEIRKMCEVVLGEFLKEIKKNPSSVKFAEMANILVIHCQTTDDLIQLTAMCWMREFIQLAGRVMLPYSSGILTAVLPCLAYDDRKKSIKEVANVCNQSLMKLVTPEDDELDELRPGQRQAEPTPDDALPKQEGTASGGPDGSCDSSFSSGISVFTAASTERAPVTLHLDGIVQVLNCHLSDTAIGMMTRIAVLKWLYHLYIKTPRKMFRHTDSLFPILLQTLSDESDEVILKDLEVLAEIASSPAGQTDDPGPLDGPDLQASHSELQVPTPGRAGLLNTSGTKGLECSPSTPTMNSYFYKFMINLLKRFSSERKLLEVRGPFIIRQLCLLLNAENIFHSMADILLREEDLKFASTMVHALNTILLTSTELFQLRNQLKDLKTLESQNLFCCLYRSWCHNPVTTVSLCFLTQNYRHAYDLIQKFGDLEVTVDFLAEVDKLVQLIECPIFTYLRLQLLDVKNNPYLIKALYGLLMLLPQSSAFQLLSHRLQCVPNPELLQTEDSLKAAPKSQKADSPSIDYAELLQHFEKVQNKHLEVRHQRSGRGDHLDRRVVL
partner: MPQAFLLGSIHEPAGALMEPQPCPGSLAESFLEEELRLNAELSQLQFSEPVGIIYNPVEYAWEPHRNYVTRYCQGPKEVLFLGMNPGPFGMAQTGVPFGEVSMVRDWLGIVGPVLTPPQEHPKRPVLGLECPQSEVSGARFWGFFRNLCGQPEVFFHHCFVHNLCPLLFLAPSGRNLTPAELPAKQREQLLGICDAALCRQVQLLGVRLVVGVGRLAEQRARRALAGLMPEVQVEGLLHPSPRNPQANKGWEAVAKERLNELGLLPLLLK

Variants of: B1
Conditions: with KRT40, Q6A162

| effect of a mutation on the interaction | Variant |
| --- | --- |
| with no effect | R346W |

Variants of: B2
Conditions: with hoil1_human RBCK1, Q9BYM8
Sequence of hoil1_human RBCK1, Q9BYM8 (Q9BYM8 whole entry): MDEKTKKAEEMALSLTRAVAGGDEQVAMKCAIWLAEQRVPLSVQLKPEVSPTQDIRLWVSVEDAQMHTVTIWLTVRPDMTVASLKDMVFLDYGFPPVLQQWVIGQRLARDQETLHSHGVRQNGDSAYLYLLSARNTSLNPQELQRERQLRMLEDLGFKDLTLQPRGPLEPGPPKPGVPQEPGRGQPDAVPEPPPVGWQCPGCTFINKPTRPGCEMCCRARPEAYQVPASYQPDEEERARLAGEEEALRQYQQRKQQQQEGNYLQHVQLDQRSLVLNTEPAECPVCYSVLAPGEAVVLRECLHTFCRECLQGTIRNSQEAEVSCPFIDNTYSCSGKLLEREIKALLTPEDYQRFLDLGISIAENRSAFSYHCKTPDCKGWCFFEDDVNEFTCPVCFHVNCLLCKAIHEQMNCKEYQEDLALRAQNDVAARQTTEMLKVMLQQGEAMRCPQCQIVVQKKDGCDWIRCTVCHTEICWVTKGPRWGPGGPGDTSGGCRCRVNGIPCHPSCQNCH

| effect of a mutation on the interaction | Variant |
| --- | --- |
| with no effect | R646W |

Variants of: B2
Conditions: with ccd24_human CCDC24, Q8N4L8
Sequence of ccd24_human CCDC24, Q8N4L8 (Q8N4L8 whole entry): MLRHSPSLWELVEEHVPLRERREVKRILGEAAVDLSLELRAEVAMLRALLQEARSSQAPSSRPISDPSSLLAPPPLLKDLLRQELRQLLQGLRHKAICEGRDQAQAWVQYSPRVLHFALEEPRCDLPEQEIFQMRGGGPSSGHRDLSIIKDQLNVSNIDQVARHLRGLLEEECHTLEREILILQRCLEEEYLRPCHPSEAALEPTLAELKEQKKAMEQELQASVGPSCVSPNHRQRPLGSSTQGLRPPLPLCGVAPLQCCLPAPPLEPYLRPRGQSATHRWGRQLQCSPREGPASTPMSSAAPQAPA

| effect of a mutation on the interaction | Variant |
| --- | --- |
| with no effect | R646W |

Variants of: B3
Conditions: with gcp4_human TUBGCP4, Q9UGJ1
Sequence of gcp4_human TUBGCP4, Q9UGJ1 (Q9UGJ1 whole entry): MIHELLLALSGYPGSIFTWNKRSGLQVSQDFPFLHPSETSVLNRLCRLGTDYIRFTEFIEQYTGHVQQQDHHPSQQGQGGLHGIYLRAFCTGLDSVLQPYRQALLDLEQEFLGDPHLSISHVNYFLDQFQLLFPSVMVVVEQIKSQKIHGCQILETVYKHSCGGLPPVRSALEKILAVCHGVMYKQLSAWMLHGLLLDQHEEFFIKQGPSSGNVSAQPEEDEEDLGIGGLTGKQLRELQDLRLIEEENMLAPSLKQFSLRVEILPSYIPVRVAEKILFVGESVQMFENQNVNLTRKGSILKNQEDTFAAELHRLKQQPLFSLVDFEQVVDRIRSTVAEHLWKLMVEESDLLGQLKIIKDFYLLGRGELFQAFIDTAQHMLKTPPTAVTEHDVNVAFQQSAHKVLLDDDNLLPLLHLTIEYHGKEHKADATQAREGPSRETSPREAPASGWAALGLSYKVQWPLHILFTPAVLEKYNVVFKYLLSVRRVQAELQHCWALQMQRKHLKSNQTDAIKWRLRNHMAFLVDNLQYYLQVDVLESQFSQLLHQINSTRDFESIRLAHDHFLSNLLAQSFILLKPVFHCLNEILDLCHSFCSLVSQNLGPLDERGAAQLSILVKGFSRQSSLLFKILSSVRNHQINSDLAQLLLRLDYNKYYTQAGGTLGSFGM

| effect of a mutation on the interaction | Variant |
| --- | --- |
| disrupting interaction strength | G663V |

Variants of: B3
Conditions: with gcp4_human TUBGCP4, Q9UGJ1
Remark: another data set of the same source

| effect of a mutation on the interaction | Variant |
| --- | --- |
| with no effect | E721K |

Variants of: B4
Conditions: with tekt4_human TEKT4, Q8WW24

| effect of a mutation on the interaction | Variant |
| --- | --- |
| with no effect | R503Q |

Variants of: B4
Conditions: with tekt4_human TEKT4, Q8WW24
Remark: another data set of the same source

| effect of a mutation on the interaction | Variant |
| --- | --- |
| with no effect | E368K |

Variants of: B5
Conditions: with snf8_human SNF8, Q96H20

| effect of a mutation on the interaction | Variant |
| --- | --- |
| with no effect | P58Q |

Variants of: B6
Conditions: with smug1_human SMUG1, Q53HV7

| effect of a mutation on the interaction | Variant |
| --- | --- |
| with no effect | A127S |

Source: IntAct's records for PubMed 29892012
